The values below come from publication doi:10.1101/2022.08.03.502613.

This test has as its target γ-tubulin ring complex (γ-TuRC) purified using GCP3-GFP-SII (human (endogenous in HEK293T)) (UniProt Q96CW5). The experiment in a line: single-molecule colocalisation by TIRF microscopy.

“mCherry-CDK5RAP2 (full-length, human) (from UniProt Q96SN8 1-1893) (natural protein)” had a % of CDK5RAP2-positive dots colocalizing with γ-TuRCs, with tubulin of 13% and a % of CDK5RAP2-positive dots colocalizing with γ-TuRCs, without tubulin of 41%.
